Data: patent publication US20120329708A1 (INDIANA UNIVERSITY RESEARCH AND TECHNOLOGY, published 2012)
*1 amine or outer side, *2 acyl side, *3 side chain or, on linkers, in order; H or OH if unused. Where no end group is shown, it is not given here. Side-chain parts run from the residue outwards. [ ]: non-standard residue; d: D form. The star is where a group is joined. 40K‑TE PEG = 40 kDa PEG attached to Cys by thioether; γGlu = O=C(O)[C@H](CCC(=O)[*:2])N[*:1]; Palmitoyl = CCCCCCCCCCCCCCCC(=O)*; Morn = not defined here; Aib = CC(C)(N)C(=O)O

Key:
Assay in all cases: cell-based or functional assay
[1] = biological target: GLP-1 receptor (HEK293 cells co-transfected with the GLP-1 receptor and a CRE-luciferase gene)
[2] = biological target: T1, GIP receptor (procedure of Example 3)
T1 sequence (P48546 whole entry, species assumed, looked up): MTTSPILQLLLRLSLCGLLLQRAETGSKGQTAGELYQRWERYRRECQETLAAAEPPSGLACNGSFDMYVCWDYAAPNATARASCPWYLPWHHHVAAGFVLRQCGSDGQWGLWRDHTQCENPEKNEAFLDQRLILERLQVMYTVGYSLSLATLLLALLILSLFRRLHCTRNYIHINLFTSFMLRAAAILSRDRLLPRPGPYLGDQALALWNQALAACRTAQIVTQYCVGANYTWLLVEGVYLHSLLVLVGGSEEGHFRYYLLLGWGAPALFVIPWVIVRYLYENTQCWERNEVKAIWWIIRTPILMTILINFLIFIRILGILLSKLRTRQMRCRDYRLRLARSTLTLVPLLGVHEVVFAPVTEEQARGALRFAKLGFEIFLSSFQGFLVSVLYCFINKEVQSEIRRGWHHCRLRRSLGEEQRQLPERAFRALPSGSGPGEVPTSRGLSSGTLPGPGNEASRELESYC

[3] = biological target: glucagon receptor (HEK293 cells co-transfected with the glucagon receptor and a CRE-luciferase gene)
[4] = biological target: T2, human GIPR (CHO-K1 cells stably expressing human GIPR) (human, UniProt P48546 22-466)
T2 sequence (looked up): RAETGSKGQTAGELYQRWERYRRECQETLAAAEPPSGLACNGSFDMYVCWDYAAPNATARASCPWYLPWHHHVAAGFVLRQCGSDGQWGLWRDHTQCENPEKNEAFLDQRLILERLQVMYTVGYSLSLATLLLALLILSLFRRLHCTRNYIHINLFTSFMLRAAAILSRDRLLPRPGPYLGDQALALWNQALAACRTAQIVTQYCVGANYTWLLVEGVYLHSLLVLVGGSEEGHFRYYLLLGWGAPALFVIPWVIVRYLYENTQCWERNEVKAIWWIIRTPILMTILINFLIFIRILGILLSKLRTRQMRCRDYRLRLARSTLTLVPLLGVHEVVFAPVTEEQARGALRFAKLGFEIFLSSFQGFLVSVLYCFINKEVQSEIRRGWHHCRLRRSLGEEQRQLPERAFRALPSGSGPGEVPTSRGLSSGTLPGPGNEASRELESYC

[5] = biological target: human GCGR (CHO-K1 cells stably expressing human GCGR) (human, UniProt P47871 26-477)
human GCGR (CHO-K1 cells stably expressing human GCGR), sequence (P47871 26-477): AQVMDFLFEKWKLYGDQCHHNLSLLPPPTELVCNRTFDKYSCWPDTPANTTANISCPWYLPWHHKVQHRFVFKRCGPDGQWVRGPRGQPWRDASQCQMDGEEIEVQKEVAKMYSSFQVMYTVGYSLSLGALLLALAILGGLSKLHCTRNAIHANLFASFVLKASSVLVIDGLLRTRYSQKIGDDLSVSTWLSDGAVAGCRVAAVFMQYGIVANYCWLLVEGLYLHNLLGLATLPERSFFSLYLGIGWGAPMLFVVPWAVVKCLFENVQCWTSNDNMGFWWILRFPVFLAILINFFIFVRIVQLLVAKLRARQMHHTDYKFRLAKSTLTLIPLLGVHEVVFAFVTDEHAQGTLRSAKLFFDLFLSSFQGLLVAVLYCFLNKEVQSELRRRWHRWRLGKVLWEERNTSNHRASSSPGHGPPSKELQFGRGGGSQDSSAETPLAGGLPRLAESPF

[6] = biological target: human GLP-1R (CHO-K1 cells stably expressing human GLP-1R) (human, UniProt P43220 24-463)

B1: peptide of SEQ ID NO: 14 (peptide)
peptide: HSQGTFTSDKSKYLDERAAQDFVQWLLDTKX
modifications: s at position 2 (lower case, presumably D-Ser); K(γGlu-C16) at position 10 (Lys acylated with C16 via γGlu spacer); C-terminal γGlu; C-terminal amide
EC50 (nM) at GLP-1 receptor (cAMP-induced luciferase reporter, HEK293) [1]: 0.003 nM | EC50 (nM) at GIP receptor (procedure of Example 3) [2]: 976 nM | EC50 (nM) at glucagon receptor (cAMP-induced luciferase reporter, HEK293) [3]: 0.003 nM

H[Aib]QGTFTSDK([γGlu-γGlu-Palmitoyl])SKYLD[Aib]RAAQDFVQWLMDTK[γGlu]-NH2 [peptide of SEQ ID NO: 12]
EC50 (nM) at GLP-1 receptor (cAMP-induced luciferase reporter, HEK293) [1]: 0.003 nM | EC50 (nM) at GIP receptor (procedure of Example 3) [2]: 12.8 nM | EC50 (nM) at glucagon receptor (cAMP-induced luciferase reporter, HEK293) [3]: 0.01 nM

B2: peptide of SEQ ID NO: 17 (peptide)
peptide: H[Aib]QGTFTSDK([γGlu-γGlu-Palmitoyl])SKYLD[Aib]RAAQDFVQWLMNTK[γGlu]-NH2
modifications: N-terminus assumed
SMILES: CCCCCCCCCCCCCCCC(=O)N[C@@H](CCC(=O)N[C@@H](CCC(=O)NCCCC[C@H](NC(=O)[C@H](CC(=O)O)NC(=O)[C@H](CO)NC(=O)[C@@H](NC(=O)[C@H](Cc1ccccc1)NC(=O)[C@@H](NC(=O)CNC(=O)[C@H](CCC(N)=O)NC(=O)C(C)(C)NC(=O)[C@@H](N)Cc1c[nH]cn1)[C@@H](C)O)[C@@H](C)O)C(=O)N[C@@H](CO)C(=O)N[C@@H](CCCCN)C(=O)N[C@@H](Cc1ccc(O)cc1)C(=O)N[C@@H](CC(C)C)C(=O)N[C@@H](CC(=O)O)C(=O)NC(C)(C)C(=O)N[C@@H](CCCNC(=N)N)C(=O)N[C@@H](C)C(=O)N[C@@H](C)C(=O)N[C@@H](CCC(N)=O)C(=O)N[C@@H](CC(=O)O)C(=O)N[C@@H](Cc1ccccc1)C(=O)N[C@H](C(=O)N[C@@H](CCC(N)=O)C(=O)N[C@@H](Cc1c[nH]c2ccccc12)C(=O)N[C@@H](CC(C)C)C(=O)N[C@@H](CCSC)C(=O)N[C@@H](CC(N)=O)C(=O)N[C@H](C(=O)N[C@@H](CCCCN)C(=O)N[C@@H](CCC(N)=O)C(=O)O)[C@@H](C)O)C(C)C)C(=O)O)C(=O)O
EC50 (nM) at GIP receptor (cAMP production, DiscoveRx Hithunter cAMP XS+, CHO-K1) [4]: > 2000 nM | EC50 (nM) at glucagon receptor (cAMP production, DiscoveRx Hithunter cAMP XS+, CHO-K1) [5]: 0.11 nM | EC50 (nM) at GLP-1 receptor (cAMP production, DiscoveRx Hithunter cAMP XS+, CHO-K1) [6]: 0.075 nM

H[Aib]QGTFTSDYSKYLDERRA[Aib]EFVC(40K‑TE PEG)WLLDTK[γGlu]-NH2 [peptide of SEQ ID NO: 13]
EC50 (nM) at GLP-1 receptor (cAMP-induced luciferase reporter, HEK293) [1]: 0.567 nM | EC50 (nM) at GIP receptor (procedure of Example 3) [2]: 140 nM | EC50 (nM) at glucagon receptor (cAMP-induced luciferase reporter, HEK293) [3]: 2.81 nM

B3: peptide of SEQ ID NO: 15 (peptide)
peptide: H[Aib]QGTFTSDK([γGlu-γGlu-Palmitoyl])SKYLD[Aib]RAAQDFVQWL[Morn]DTKQ-OH
modifications: not fully specified; printed as HaibQGTFTSDK(γGlu-γGlu-C16)SKYLDaibRAAQDFVQWLMornDTKQ-acid; reading uncertain
EC50 (nM) at GLP-1 receptor (cAMP-induced luciferase reporter, HEK293) [1]: 0.005 nM | EC50 (nM) at GIP receptor (procedure of Example 3) [2]: 1.9 nM | EC50 (nM) at glucagon receptor (cAMP-induced luciferase reporter, HEK293) [3]: 0.006 nM

B4: peptide of SEQ ID NO: 16 (peptide)
peptide: H[Aib]QGTFTSDK([γGlu-γGlu-Palmitoyl])SKYLD[Aib]RAAQDFVQWLLDTKQ-OH
modifications: N-terminus assumed
SMILES: CCCCCCCCCCCCCCCC(=O)N[C@@H](CCC(=O)N[C@@H](CCC(=O)NCCCC[C@H](NC(=O)[C@H](CC(=O)O)NC(=O)[C@H](CO)NC(=O)[C@@H](NC(=O)[C@H](Cc1ccccc1)NC(=O)[C@@H](NC(=O)CNC(=O)[C@H](CCC(N)=O)NC(=O)C(C)(C)NC(=O)[C@@H](N)Cc1c[nH]cn1)[C@@H](C)O)[C@@H](C)O)C(=O)N[C@@H](CO)C(=O)N[C@@H](CCCCN)C(=O)N[C@@H](Cc1ccc(O)cc1)C(=O)N[C@@H](CC(C)C)C(=O)N[C@@H](CC(=O)O)C(=O)NC(C)(C)C(=O)N[C@@H](CCCNC(=N)N)C(=O)N[C@@H](C)C(=O)N[C@@H](C)C(=O)N[C@@H](CCC(N)=O)C(=O)N[C@@H](CC(=O)O)C(=O)N[C@@H](Cc1ccccc1)C(=O)N[C@H](C(=O)N[C@@H](CCC(N)=O)C(=O)N[C@@H](Cc1c[nH]c2ccccc12)C(=O)N[C@@H](CC(C)C)C(=O)N[C@@H](CC(C)C)C(=O)N[C@@H](CC(=O)O)C(=O)N[C@H](C(=O)N[C@@H](CCCCN)C(=O)N[C@@H](CCC(N)=O)C(=O)O)[C@@H](C)O)C(C)C)C(=O)O)C(=O)O
EC50 (nM) at GLP-1 receptor (cAMP-induced luciferase reporter, HEK293) [1]: 0.019 nM | EC50 (nM) at GIP receptor (procedure of Example 3) [2]: 1.04 nM | EC50 (nM) at glucagon receptor (cAMP-induced luciferase reporter, HEK293) [3]: 0.015 nM
